# Test results as given in IntAct's records for PubMed 16873060.
# B1: Protein PML (Homo sapiens), P29590 (parent)
# chain: MEPAPARSPRPQQDPARPQEPTMPPPETPSEGRQPSPSPSPTERAPASEEEFQFLRCQQCQAEAKCPKLLPCLHTLCSGCLEASGMQCPICQAPWPLGADTPALDNVFFESLQRRLSVYRQIVDAQAVCTRCKESADFWCFECEQLLCAKCFEAHQWFLKHEARPLAELRNQSVREFLDGTRKTNNIFCSNPNHRTPTLTSIYCRGCSKPLCCSCALLDSSHSELKCDISAEIQQRQEELDAMTQALQEQDSAFGAVHAQMHAAVGQLGRARAETEELIRERVRQVVAHVRAQERELLEAVDARYQRDYEEMASRLGRLDAVLQRIRTGSALVQRMKCYASDQEVLDMHGFLRQALCRLRQEEPQSLQAAVRTDGFDEFKVRLQDLSSCITQGKDAAVSKKASPEAASTPRDPIDVDLPEEAERVKAQVQALGLAEAQPMAVVQSVPGAHPVPVYAFSIKGPSYGEDVSNTTTAQKRKCSQTQCPRKVIKMESEEGKEARLARSSPEQPRPSTSKAVSPPHLDGPPSPRSPVIGSEVFLPNSNHVASGAGEAEERVVVISSSEDSDAENSSSRELDDSSSESSDLQLEGPSTLRVLDENLADPQAEDRPLVFFDLKIDNETQKISQLAAVNRESKFRVVIQPEAFFSIYSKAVSLEVGLQHFLSFLSSMRRPILACYKLWGPGLPNFFRALEDINRLWEFQEAISGFLAALPLIRERVPGASSFKLKNLAQTYLARNMSERSAMAAVLAMRDLCRLLEVSPGPQLAQHVYPFSSLQCFASLQPLVQAAVLPRAEARLLALHNVSFMELLSAHRRDRQGGLKKYSRYLSLQTTTLPPAQPAFNLQALGTYFEGLLEGPALARAEGVSTPLAGRGLAERASQQS
# Variants of: B1
# Conditions: with csk21_human CSNK2A1, P68400
# Chain of csk21_human CSNK2A1, P68400 (P68400 whole entry, looked up): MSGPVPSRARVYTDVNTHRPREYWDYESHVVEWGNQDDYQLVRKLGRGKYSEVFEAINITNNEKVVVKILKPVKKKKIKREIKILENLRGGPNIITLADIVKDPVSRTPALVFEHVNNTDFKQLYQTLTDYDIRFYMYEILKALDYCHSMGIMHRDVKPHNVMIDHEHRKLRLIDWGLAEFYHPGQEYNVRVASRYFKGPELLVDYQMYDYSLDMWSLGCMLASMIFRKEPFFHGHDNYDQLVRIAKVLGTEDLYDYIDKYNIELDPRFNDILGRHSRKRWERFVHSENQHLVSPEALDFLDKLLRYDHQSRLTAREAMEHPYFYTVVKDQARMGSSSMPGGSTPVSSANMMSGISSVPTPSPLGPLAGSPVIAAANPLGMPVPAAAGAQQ
row,effect of a mutation on the interaction,Variant
1,decreasing interaction,S518A
